{"source": "the nanobody polyreactivity screen of Harvey et al. (2022)"}
{"assay": "yeast display, Sf9 membrane polyspecificity reagent, FACS + sequencing; frameworks hold sequencing errors", "method_in_brief": "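Genes from sorted yeast were amplified by colony PCR, read by MiSeq 2 × 250 sequencing and filtered on CDR length. These cells carried a synthetic nanobody library in Saccharomyces cerevisiae BJ5465 and were sorted by FACS into low and high (top ~1%) gates on anti-HA and streptavidin fluorescence. Polyreactivity is labelled according to the gate of origin.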"}
{"sequence": "QVQLVESGGGLVQAGGSLGLNCAASGFTFRVNAMGLYSQAPGKEREFVAAITASGGSTYYADSVKGRFTISRDNAKNTVYLLMNSLKPVDTAVYYCAADWWIYWYPDTGDYWGQRTQVTVSS", "polyreactivity (PSR sort gate)": "high polyreactivity"}
{"sequence": "QVQLVESGGGLVQAGGSLGLSCAASGRTIDYYALGWYRQAPGKERELVAAITWDGSTYYADSVKGRFTISRDNAKITVYLQMISLKPEVTAVYYCAADFYWYLDLYDFWGQGTQVTVSS", "polyreactivity (PSR sort gate)": "high polyreactivity"}
{"sequence": "QVQLVESGGGLVQAGGSLGLSCAASGSTFGFYTMGWYRQAPGKERELVATISYSGGDTYYEDSVKGRFTISRDNAKNTVYFQMNSLKPEYTAVYYCAADLGDYVTTYSWLDSWGQGTQVTVSS", "polyreactivity (PSR sort gate)": "low polyreactivity"}
{"sequence": "QVQLVESGGGLVQAGGSLGLTCAASGFIFLDYTMVWYRQAPGIERELVATINASDGSTYYADSVKGRFTISRDNAKKTVYLQMNSLKPEDTAVYYCNTKVISRTSERRGNGFTRYDYWGQGTQVTVSS", "polyreactivity (PSR sort gate)": "low polyreactivity"}
{"sequence": "QVQLVESGGGLVQAGGSLLLICAASGSTFPYNAMGWYRQAPGKQRELVASITSRGGSTYYADSVKGRFTISRDNAKNTVYLQMNSLKPQDTAVYYCATPGDTYGWTRRRYYYWGQGTQVTVSS", "polyreactivity (PSR sort gate)": "high polyreactivity"}
{"sequence": "QVQLVESGGGLVQAGGSLLLSCAASGFIFVSYAMGWYRQAPGKERELVAAIDRIGGITYYADSVKGRFTISRDNAKNTVYLQMNSLKREDTAVYYCAAAARFATVRVGREYYWGQGTQVTVSS", "polyreactivity (PSR sort gate)": "low polyreactivity"}
{"sequence": "QVQLVESGGGLVQAGGSLLLSCAASGFILYSYAMGWYRQAPGTEREFVSVISRGGGRTYYADSVKGRFTISRDNAKNTVYLQMNCLKPDDTAVYYCAATPSNVYAYEYWGQGTQVTVSS", "polyreactivity (PSR sort gate)": "low polyreactivity"}
{"sequence": "QVQLVESGGGLVQAGGSLLLSCAASGFTFLWYDMGWYRQSPGKERELVAAIDASDGSTYYADSVKGRFTISRDNAKNTVYLQMNSLKPEDTAVYYCAVAAGYFGKWTYYYWGQGTQVTVSS", "polyreactivity (PSR sort gate)": "high polyreactivity"}
{"sequence": "QVQLVESGGGLVQAGGSLLLSCAASGIIFGTNALGWYRQAPGKERELVAAITWSGGNTTYADSVKGRFTISRDNAKNTVYLQMNSLKPEDTAVYYCAADFTRAGDYDYWGQGTQVTVSS", "polyreactivity (PSR sort gate)": "low polyreactivity"}
{"sequence": "QVQLVESGGGLVQAGGSLLLSCAASGLIFSGYAMGWYRQAPGKERELVAAISRTVGTTYYADSVKGRFTISRDNGKNPVYLQMNSLKPEDTAVYYCAARGRATLYDYWGQGTQVTVSS", "polyreactivity (PSR sort gate)": "high polyreactivity"}
{"sequence": "QVQLVESGGGLVQAGGSLLLSCAASGLIFYPYAMGWYRQAPGKEREFVAAITWSGGSTRYADSVKGRFTISRDNAKNTVYLQMNSLKPEDTAVYYCAARYIWWYDYTYTGLDYWGQGTQVTVSS", "polyreactivity (PSR sort gate)": "high polyreactivity"}
{"sequence": "QVQLVESGGGLVQAGGSLLLSCAASGNTFYKYTMGWYRQAPGKERELVAVISSSSGSTYYADSVKGRFTISRDNAKNTVYLQMNSLKPEYTAVYYCKKRGWWDLRHYYWGQGTQVTVSS", "polyreactivity (PSR sort gate)": "low polyreactivity"}
{"sequence": "QVQLVESGGGLVQAGGSLLLSCAASGRIFDVYALGWYRQAPGTEREWVAAITWRVGSTYYADSVKGRFTISRDTAKNTVYLQMNSLKPEDTAVYYCAVDSFLVYSAVRPYDYWGQGTQVTVSS", "polyreactivity (PSR sort gate)": "low polyreactivity"}
{"sequence": "QVQLVESGGGLVQAGGSLLLSCAASGRIFWHNTMGWYRQAPGKERELVAGISVSGGSTYYADSVKGRFTISRDNAMNTVYLKMNSLKPEDTAVYYCAARKVTSWKAHFRFDYWGQGTQVTVSS", "polyreactivity (PSR sort gate)": "low polyreactivity"}
{"sequence": "QVQLVESGGGLVQAGGSLLLSCAASGRTFSRNAMGWYRQAPGKERELVASIRSGGTTNYADSVKGRFTISRDNAKNTVYLQMNSLKPEVTAVYYCNAGDTFLDPCSQYLFDYWGQGTLVTVSS", "polyreactivity (PSR sort gate)": "low polyreactivity"}
{"sequence": "QVQLVESGGGLVQAGGSLLLSCAASGRTFYVYAMGWYRQAPGKERELVAAITSGGRTYYADSVKGRFTISRDNAKNTVYLQMNRLKPEDTAVYYCNARRTSRSYSFNYWGQGTQVTVSS", "polyreactivity (PSR sort gate)": "high polyreactivity"}
{"sequence": "QVQLVESGGGLVQAGGSLLLSCAASGSIFFYAMGSYRQAPGKERELVADITYTGGSKYADSVKGRFTISRDNAKNTVYLQMNSLKPEDTAVYYCAKLDGGLFDYWGQGTQVTVSS", "polyreactivity (PSR sort gate)": "low polyreactivity"}
{"sequence": "QVQLVESGGGLVQAGGSLLLSCAASGSIFSIYAMGWYRQAPGKERELVAAISSSGRTYYADSVKGRFTISRDNAKNTVYLQMNSLKPEDTAVYSCNRVREGKHYYYWGQGTQVTVSS", "polyreactivity (PSR sort gate)": "high polyreactivity"}
{"sequence": "QVQLVESGGGLVQAGGSLLLSCAASGSIFVRNTMGWYRQAPGKERELVAAITSSGGTTYYADSVKGRFTISRDNAKNTVYLQMNSLKPEDTAVYYCAARYGYWGQGTQVTVSS", "polyreactivity (PSR sort gate)": "high polyreactivity"}
{"sequence": "QVQLVESGGGLVQAGGSLLLSCAASGSIYVNNAMGWYRQAPGKERELVAAISRSGGSTYYADSVKGRFTISRDSAKKTVYLQMNSLKPEDTAVYYCATVHRSSTPPEFNYSGQGTQVTVSS", "polyreactivity (PSR sort gate)": "high polyreactivity"}
{"sequence": "QVQLVESGGGLVQAGGSLLLSCAASGSTFPHYTMGWYSQAPGKEREWVAVISRSGRTYYADSVKGRFTISRDNAKNTVYLQMNSLKPEDTAVYYCAVLVGRLVWSYNHWGQGTQGTVSS", "polyreactivity (PSR sort gate)": "high polyreactivity"}
{"sequence": "QVQLVESGGGLVQAGGSLLLSCAASGSTFSYYGMGWYRQAPVKERELVAAIDYSGDSTYYADSVKGRFTISRDNSKNTVFLQMNSLKPEDTAVYYCAADDYPWNRYEYWGQGTQVTVSS", "polyreactivity (PSR sort gate)": "low polyreactivity"}
{"sequence": "QVQLVESGGGLVQAGGSLLLSSAASGIIFNQYAMGWYRQAPGKERELVATISSGGARTYYADSVKWRFTISRDNAKNTVYLQMNSRKPEDTAVYFCNRRVPYSFYSRGYYYWGQGTQVTVSS", "polyreactivity (PSR sort gate)": "high polyreactivity"}
{"sequence": "QVQLVESGGGLVQAGGSLPLSCAASGGTFYKYAMGWYRQAPGKERELVARISRGGSTYYADSVKGRFTISRDNAKNTVYLQMTSLKPEDTAVYYCAKLWYAVWPIVVQYNYWGQGTQVNVSS", "polyreactivity (PSR sort gate)": "high polyreactivity"}
{"sequence": "QVQLVESGGGLVQAGGSLPLSCAASGRIFVVYAMGWYRQAPGKERDLVAGISWTDGRTYYADSVKGRFTISRDNAKNTVYLLMNSLKPEDTAVYYCNKARTSQYHHTYWRTYGYWGQGTQVTLSS", "polyreactivity (PSR sort gate)": "low polyreactivity"}
{"sequence": "QVQLVESGGGLVQAGGSLPLSCAASGRTFGSYVMRWYRQAPGKERELVATISRRGGTTYYADSVKGRFTISRDNAKNTVYLQMNSLKPEDTAVYYCAAKYFATRYDYWGQGTQVTVSS", "polyreactivity (PSR sort gate)": "high polyreactivity"}
{"sequence": "QVQLVESGGGLVQAGGSLPLSCAASGRTIYRYAMGSYRQAPGKERELDAAIRRSGDSTYYADSVKGRFTISRDIAKKTVYLQMNSLKPEDTAVYYCNAVASGRTYDYWGQGTQVTVSS", "polyreactivity (PSR sort gate)": "high polyreactivity"}
{"sequence": "QVQLVESGGGLVQAGGSLPLSCAASGSIFFFNAMGWYRQATGKEREFVAAITSSSGRTYYADSVKGRFTISRDNANNTVYLQMNSLKPEDSAVYFCAAQVPEDTETVDYWGQGTQVTVSS", "polyreactivity (PSR sort gate)": "low polyreactivity"}
{"sequence": "QVQLVESGGGLVQAGGSLPLSCAASGSIFKPYAMGWYRQAPGKERELVAVISWRGGSTYYADSVKGRFTISRDNAKNTVYLQMNSLKPEDTAVYYCAARRYRYFDGTVPLDYWGQGTQVTVSS", "polyreactivity (PSR sort gate)": "high polyreactivity"}
{"sequence": "QVQLVESGGGLVQAGGSLPLSCAASGSTFGYNAMGWYRQAPGKERELVAAITWTGASTYYADSVKGRFTISRDNAKNTVYLQMNSLKPEDTAVYYCNARFGKRGYSPPYDYWGQGTQVTVSS", "polyreactivity (PSR sort gate)": "low polyreactivity"}
{"sequence": "QVQLVESGGGLVQAGGSLPLSCAASGSTFSYYAMGWYRQAPGKERELVAAITSGGSTYYADSVKGRFTISRDNAKNTVYLQMNSLKPEDTAVYYCNAEPYTSSGGYRAYDFDYWGQGTQVTVSS", "polyreactivity (PSR sort gate)": "low polyreactivity"}
{"sequence": "QVQLVESGGGLVQAGGSLPLSCASYGSIIVGNVMGWYRQAPGKESELVAAMTSSGTSTFYADSVKGRFTNSRDIAKNTVYLQMNSLKPEVTAVYYCAVDLYWSYFNGSLGYRYYFWGQGTQLTVSS", "polyreactivity (PSR sort gate)": "high polyreactivity"}
{"sequence": "QVQLVESGGGLVQAGGSLPLSGAPSGSTFGYNTMGWSRQAPGKESELVAAITSGGRTYYADSVKGRFTISRDNAKNTVYLQRNSLKPEDTAVYYCAAYYWWGYPENDYWVQGTQVTVSS", "polyreactivity (PSR sort gate)": "high polyreactivity"}
{"sequence": "QVQLVESGGGLVQAGGSLPLSSAASGLIFSWYAMGWYRQAPAKDSELVAAIDQSGDSTYYADSVKGRFTISRDNAKNTVYLQMNSLKPEDTAVYYCAAQSYDYWYDYDYWGQGTQVTVSS", "polyreactivity (PSR sort gate)": "high polyreactivity"}
{"sequence": "QVQLVESGGGLVQAGGSLPLTCAASGLTFYDYPMGWYRKATVKERELVAAIRRSGTRTYYADSVKGRFTISRDYAKNTVYLQMNSLKPEDTAVYYCNTVRRLKRYSSYGHDYWGQGTQVTVSS", "polyreactivity (PSR sort gate)": "high polyreactivity"}
{"sequence": "QVQLVESGGGLVQAGGSLRFSCAAPGTIFPRYAMGWYRQAPGKERELVAAISRSGGSTYYADSVKGRFTISRDNAKNTVYLQMNSLKPEDTAVYYCATDKVSHRRYDYWGQGTQVTVSS", "polyreactivity (PSR sort gate)": "high polyreactivity"}
{"sequence": "QVQLVESGGGLVQAGGSLRFSCAASGGIFWHYTMGWYRQAHGKERELVAAITRRGGSTYYADSVKGRFTISRDNAKNTVYLQINSLKPEDTAVYYCAADFLPQSYNWYDYWGQGTQVTVAS", "polyreactivity (PSR sort gate)": "low polyreactivity"}
{"sequence": "QVQLVESGGGLVQAGGSLRFSCAASGGTFGYNAMGWYRQAPGKDRELVARISWRGASTYYADSVKGRFTLSRDNAKNTVYLQMNSLKPEDTAVYYCAAYSFNYQPAYAYRGEDYWGQGTQVTVSS", "polyreactivity (PSR sort gate)": "low polyreactivity"}
{"sequence": "QVQLVESGGGLVQAGGSLRFSCAASGITFTEYAMGWYTQAPGTERELVAAITGSGTSTYYADSVKGRFTISRDNAKNTVYLHMNSLKPEDTAVYYCAARTRGTAYNYWGQGTQVTVSS", "polyreactivity (PSR sort gate)": "high polyreactivity"}
{"sequence": "QVQLVESGGGLVQAGGSLRFSCAASGITFVDYAMGWYRQAPGKEREFVAGISESGGSTYYADSVKGRFTISRDNAKNTVYLQMNSLKPEDTAVYYCAADPYVDSYDSWGQGTQVTVSS", "polyreactivity (PSR sort gate)": "low polyreactivity"}
{"sequence": "QVQLVESGGGLVQAGGSLRFSCAASGLIFGSYTMGWSRQAPGKERELVAGISRGGGITYYADSVKGRFTISRDNAKNTVYLQMNSLKPEDTAVYYCAAGYFSYSPYGSYKFGYWGQGTQVTVSS", "polyreactivity (PSR sort gate)": "high polyreactivity"}
